Measured values as given in paper PMC12559291.
“And” between values parts separate entries of the source, which are not always exact repeats. Equal entries are not always repeated.

Columns and labels:
[1] = molecular target: galectin-3 (Gal3), human recombinant, made as Gal3-TEV-6xHis and freed of the tag by TEV protease (human) (UniProt P17931); test: negative stain EM; lactose-washed RPE-1 cells with exogenous Gal3 (50 μg/mL) for 30 min at 4 °C; surface-bound Gal3 eluted with I3; 2D classification of the eluted particles in cryoSPARC
[2] = molecular target: α5β1 integrin purified from rat liver (rat) (UniProt P49134); test: single-molecule photobleaching (TIRF); sialidase-treated rat α5β1 integrin in biotinylated peptidiscs complexed with 4 μM Gal3-Cy3 on cobalt beads, eluted with EDTA, immobilised on neutravidin-coated glass; 21 °C
[3] = molecular target: α5β1 integrin purified from rat liver (rat) (UniProt P49134); test: cryo-EM structure; rat α5β1 integrin in peptidiscs on cobalt beads, sialidase-treated, 4 μM Gal3 for 2 h at 21 °C, eluted with 10 mM EDTA and vitrified at once; 6.9 Å
[4] = molecular target: galectin-3 (Gal3), human recombinant, made as Gal3-TEV-6xHis and freed of the tag by TEV protease (human) (UniProt P17931); test: negative stain EM; Gal3 or Gal3∆Nter (4 μM, 2 h at 21 °C) on inactive rat α5β1 integrin in nanodiscs held on cobalt beads, washed, eluted with 50 μM I3; the eluted particles counted as monomers or ring-shaped oligomers
[5] = molecular target: α5β1 integrin purified from rat liver (rat) (UniProt P49134); test: cryo-EM structure; rat α5β1 integrin in GSL-containing nanodiscs on cobalt beads, sialidase-treated, 4 μM Gal3 for 2 h at 21 °C, eluted with 10 mM EDTA and vitrified at once; three subsets at 7.4, 8.5 and 7.6 Å; Gal3 CRDs (PDB 1KJL) fitted as rigid bodies
[6] = molecular target: galectin-3 (Gal3), human recombinant, made as Gal3-TEV-6xHis and freed of the tag by TEV protease (human) (UniProt P17931); test: as above

galectin-3 (Gal3), human recombinant, made as Gal3-TEV-6xHis and freed of the tag by TEV protease (from UniProt P17931 1-250) (natural protein)
percent of oligomer particles classed as dimers [1]: 37%
percent of oligomer particles classed as tetramers [1]: 22%
percent of oligomer particles classed as trimers [1]: 41%
stoichiometry N [1]: 2 and 3 and 4
stoichiometry N [2]: < 4
stoichiometry N [3]: 2
percent of eluted Gal3 particles that are ring-shaped oligomers [4]: 40%
stoichiometry N [5]: 2 and 3 and 4
stoichiometry N [6]: 2 and 3 and 4
